Reference: patent US20250339569A1, “CARBONIC ANHYDRASE IX LIGANDS” (priority 2021, published 2025)

Legend:
[1] = biological target: murine carbonic anhydrase 9 (CAIX) (mouse) (UniProt Q8VHB5); experiment: radioligand saturation binding on CHO-msCAIX cells, 8 h at 37 °C, single experiment
[2] = biological target: murine carbonic anhydrase 9 (CAIX) (mouse) (UniProt Q8VHB5); experiment: radioligand saturation binding on CHO-msCAIX cells, 8 h at 37 °C, experiment i

Sequence of murine carbonic anhydrase 9 (CAIX) (mouse) (Q8VHB5 32-437 limits assumed): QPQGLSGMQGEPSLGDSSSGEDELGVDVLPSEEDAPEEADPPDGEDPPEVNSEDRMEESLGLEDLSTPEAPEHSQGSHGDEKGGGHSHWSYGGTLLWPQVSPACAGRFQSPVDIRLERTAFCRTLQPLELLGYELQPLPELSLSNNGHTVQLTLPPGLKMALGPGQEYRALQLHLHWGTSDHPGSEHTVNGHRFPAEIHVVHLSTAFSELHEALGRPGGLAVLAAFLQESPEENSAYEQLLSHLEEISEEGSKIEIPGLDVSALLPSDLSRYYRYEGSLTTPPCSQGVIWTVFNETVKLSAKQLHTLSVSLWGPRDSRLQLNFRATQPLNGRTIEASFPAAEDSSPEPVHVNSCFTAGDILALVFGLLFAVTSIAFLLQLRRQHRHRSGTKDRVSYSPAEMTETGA

Mean Bmax [1]: 5.6 fmol/µg prot
Bmax [2]: 5.6 fmol/µg prot
pKd [2]: 7.2 -log10(M)
Substance: [^111In]In-DPI-4452 (peptide)
